The values that follow come from publication PMC7173237.

The assay deals with West Nile virus (Kunjin subtype, strain MRM61C) core (C) protein, trypsin-cleaved fragment Val23-Arg98 (Kunjin virus (strain MRM61C)). The assay can be described thus: crystal structure.

As a reminder, the stoichiometry N is the number of molecules, sites or subunits per partner or assembly. The substance “West Nile virus (Kunjin subtype, strain MRM61C) core (C) protein, trypsin-cleaved fragment Val23-Arg98 (domain or fragment)” displayed a stoichiometry N of 4.
